The term stoichiometry N denotes the number of molecules, sites or subunits per partner or assembly.

The text below walks through data of PMC7296346, “Dynamic Palmitoylation of the Sodium-Calcium Exchanger Modulates Its Structure, Affinity for Lipid-Ordered Domains, and Inhibition by XIP” (Cell Reports, 2020).

Series [1] addresses C739A NCX1, full length, tetracycline-inducible in FT-293 cells (canine). The experiment in a line: cross-linking; FT-293 cells expressing tetracycline-inducible NCX1 treated with 0.1 mM BMH for 5 min at 37°C in 10 mM Tris-HCl pH 7.2, 150 mM NaCl; lysed in 1% Triton X-100; SDS-PAGE.
Series [2] concerns the molecule itself. The description is as above.

In series [1], “C739A NCX1, full length, tetracycline-inducible in FT-293 cells (natural protein)” showed a stoichiometry N of 2.

B1: wild-type (WT) NCX1, full length, tetracycline-inducible in FT-293 cells (natural protein, canine, UniProt P23685 33-970, looked up)
chain: ETEMEGEGNETGECTGSYYCKKGVILPIWEPQDPSFGDKIARATVYFVAMVYMFLGVSIIADRFMSSIEVITSQEKEITIKKPNGETTKTTVRIWNETVSNLTLMALGSSAPEILLSVIEVCGHNFTAGDLGPSTIVGSAAFNMFIIIALCVYVVPDGETRKIKHLRVFFVTAAWSIFAYTWLYIILSVISPGVVEVWEGLLTFFFFPICVVFAWVADRRLLFYKYVYKRYRAGKQRGMIIEHEGDRPSSKTEIEMDGKVVNSHVDNFLDGALVLEVDERDQDDEEARREMARILKELKQKHPEKEIEQLIELANYQVLSQQQKSRAFYRIQATRLMTGAGNILKRHAADQARKAVSMHEVNTEVAENDPVSKIFFEQGTYQCLENCGTVALTIIRRGGDLTNTVFVDFRTEDGTANAGSDYEFTEGTVVFKPGETQKEIRVGIIDDDIFEEDENFLVHLSNVKVSSEASEDGILEANHVSALACLGSPSTATVTIFDDDHAGIFTFEEPVTHVSESIGIMEVKVLRTSGARGNVIVPYKTIEGTARGGGEDFEDTCGELEFQNDEIVKTISVKVIDDEEYEKNKTFFLEIGEPRLVEMSEKKALLLNELGGFTITGKYLYGQPVFRKVHAREHPIPSTVITIAEEYDDKQPLTSKEEEERRIAEMGRPILGEHTKLEVIIEESYEFKSTVDKLIKKTNLALVVGTNSWREQFIEAITVSAGEDDDDDECGEEKLPSCFDYVMHFLTVFWKVLFAFVPPTEYWNGWACFIVSILMIGILTAFIGDLASHFGCTIGLKDSVTAVVFVALGTSVPDTFASKVAATQDQYADASIGNVTGSNAVNVFLGIGVAWSIAAIYHAANGEQFKVSPGTLAFSVTLFTIFAFINVGVLLYRRRPEIGGELGGPRTAKLLTSCLFVLLWLLYIFFSSLEAYCHIKGF
modifications: palmitoylated at cysteine 739
notes: Na-Ca exchanger 1, canine, NCX1.1 cDNA; Forms a dimer (cross-linking); The cell line is from Reilly et al., 2015; source: in cells or in lysate
With B1, the “stoichiometry N” value in series [2] was determined as 2.
